Changes are numbered by the printed parent chain.
Key:
[1] = biological target: T1, AcinusS (D/A) resulting from substitution of Asp^1093 with Ala
T1 chain: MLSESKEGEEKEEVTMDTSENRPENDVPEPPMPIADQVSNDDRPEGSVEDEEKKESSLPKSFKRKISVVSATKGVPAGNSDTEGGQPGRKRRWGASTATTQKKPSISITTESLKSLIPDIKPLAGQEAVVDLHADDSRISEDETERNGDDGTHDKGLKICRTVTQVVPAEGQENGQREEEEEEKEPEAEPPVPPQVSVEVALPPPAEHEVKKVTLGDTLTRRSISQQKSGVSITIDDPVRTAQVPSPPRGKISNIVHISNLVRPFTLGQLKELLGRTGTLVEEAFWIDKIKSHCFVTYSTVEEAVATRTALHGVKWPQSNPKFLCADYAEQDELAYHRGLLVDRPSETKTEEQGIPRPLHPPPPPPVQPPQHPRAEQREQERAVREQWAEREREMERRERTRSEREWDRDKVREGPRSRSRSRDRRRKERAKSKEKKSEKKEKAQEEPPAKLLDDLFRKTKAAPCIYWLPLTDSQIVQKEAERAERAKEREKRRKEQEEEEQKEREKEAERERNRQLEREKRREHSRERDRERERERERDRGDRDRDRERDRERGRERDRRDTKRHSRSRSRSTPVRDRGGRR

human AcinusS = biological target: T2, human AcinusS
T2 chain: T1 chain with A335D

B1: recombinant active human caspase-3 (protein)
chain: SGISLDNSYKMDYPEMGLCIIINNKNFHKSTGMTSRSGTDVDAANLRETFRNLKYEVRNKNDLTREEIVELMRDVSKEDHSKRSSFVCVLLSHGEEGIIFGTNGPVDLKKITNFFRGDRCRSLTGKPKLFIIQACRGTELDCGIETDSGVDDDMACHKIPVEADFLYAYSTAPGYYSWRNSKDGSWFIQSLCAMLKQYADKLEFMHILTRVNRKVATEFESFSFDATFHAKKQIPCIVSMLTKELYFYH
For B1, the “in vitro cleavage by caspase-3 (SDS-PAGE, immunoblot)” value [1] was “a mutation of substituting Asp^1093 with Ala (D/A) abolished the in vitro cleavage of Acinus by caspase-3” and the “cleavage of AcinusS by caspase-3 (SDS-PAGE, immunoblot; microsequencing of the cleavage product)” value (human AcinusS) was “human AcinusS was actually cleaved with caspase-3 in vivo, and the cleavage site was determined to be the Asp^1093 of DELD^1093”.

— patent US7011951
